# Where two headings read alike, the source gives them in different places. Peptide text beside a SMILES is read from it.
# T1: ComR WT (Streptococcus thermophilus LMD-9, UniProt PDB:5JUB_1 1-310)
# T1 sequence: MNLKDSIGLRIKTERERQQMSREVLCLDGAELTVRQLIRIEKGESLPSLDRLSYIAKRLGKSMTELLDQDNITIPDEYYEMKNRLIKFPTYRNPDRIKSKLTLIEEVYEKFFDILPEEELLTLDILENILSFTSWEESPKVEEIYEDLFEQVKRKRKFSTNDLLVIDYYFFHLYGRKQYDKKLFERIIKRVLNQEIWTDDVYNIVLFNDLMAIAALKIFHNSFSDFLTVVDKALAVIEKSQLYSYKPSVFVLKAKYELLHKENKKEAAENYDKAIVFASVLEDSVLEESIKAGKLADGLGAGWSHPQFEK
# Experiments:
# [1] = test system: ComR from S. thermophilus; set-up: method as in 2 sources, ref [30] = [30]; PMID 23323845; doi:10.1111/mmi.12157; 30 Fontaine L , Goffin P , Dubout H , Delplace B , Baulard A , Lecat-Guillet N , et al Mechanism of competence activation by the ComRS signalling system in streptococci . Mol Microbiol . 2013; 87 ( 6 ||| ref [29] = [29]; PMID 20023010; doi:10.1128/JB.01251-09; 29 Fontaine L , Boutry C , de Frahan MH , Delplace B , Fremaux C , Horvath P , et al A novel pheromone quorum-sensing system controls the development of natural competence in Streptococcus thermophilu; settings: cited from earlier work; for in vivo activation efficiency / activation of ComR: previous analysis, ComR from S. thermophilus, ref [30]; for activity of heptapeptide ComS18-24: previous study, lacking the N-terminal Leucine, ref [29]
# ComR WT [2] = molecular target: ComR WT (Streptococcus thermophilus, UniProt A0A1L1QK15); assay: biochemical; assay type: binding, Streptococcus thermophilus LMD-9; settings: for Kd: Table 2 (WT and variant XIPs), ITC, 20°C, 20 mM Tris-HCl pH 8.0, 150 mM NaCl, 1 mM EDTA, 50 μM protein in cell, 500 μM peptide in syringe, one-binding-site model, apparent KD, read-out: KD
# Protocol: Purification of ComR-StreptagII proteins (StreptagII at C-terminus) was performed as described previously with some modifications. E. coli strain BL21 Gold cultures were grown in 2YT medium at 15°C until an OD600 of ~ 0.5, cooled down on ice for 10 minutes, and induced by addition of 0.2% of L-arabinose (wt vol^-1) before continuous shaking at 28°C for 4 h. Cells were then harvested by centrifugation (5,000 × g during 15 min at 8°C). The pellets were resuspended in cold buffer W (100 mM Tris-HCl pH 8.0, 150 mM NaCl, 1 mM EDTA) supplemented with 0.5 mg ml^−1 of lysozyme, incubated for 30 min at 4°C, and sonicated at 4°C. […] For structural and biophysical analyses, the purification protocol was completed by a size exclusion chromatography step using a HiLoad 16/600 Superdex 75 prep grade column (GE Healthcare) equilibrated in buffer W plus 10% (vol vol^-1) glycerol. Purified proteins were aliquoted, flash frozen and conserved at -20°C. Their purity was visualized by SDS-PAGE and their concentrations were measured using a Nanodrop apparatus (protein A280 method) (ThermoFisher Scientific).
# Isothermal titration calorimetry (ITC) experiments were performed at 20°C in 20 mM Tris-HCl pH 8.0, 150 mM NaCl, 1 mM EDTA with an ITC200 calorimeter (Microcal). The protein concentration in the microcalorimeter cell and the peptide concentration in the syringe were set at 50 μM and 500 μM, respectively. A first injection of 0.4 μl, which was not taken into account for the fitting, was followed by 20 injections of 2 μl at intervals of 180 s. The peptide concentration used in the calculations is based on the weight of the lyophilized peptide and is therefore inaccurate because there may be a significant quantity of bound water, and salts or counter ions. However, the calculated number of binding sites, n, is always close to 1, in agreement with the 1:1 ratio observed in the crystal structure of the ternary complex. […] The data were analyzed using the MicroCal Origin software provided by the manufacturer. […] It was therefore not possible to distinguish the two events and the fitting was performed with the one-binding-site model. The calculated KD are therefore apparent values.
# [3] = molecular target: ComR from Streptococcus thermophilus LMD-9 (ComR-StreptagII, wild type) (Streptococcus thermophilus LMD-9); assay: ITC; peptide 500 μM in the syringe, ComR 50 μM in the cell; 20°C; 20 mM Tris-HCl pH 8.0, 150 mM NaCl, 1 mM EDTA; one-binding-site model; apparent KD (peptide binding and dimerization not told apart)
# ComR WT [4] = molecular target: T1, ComR WT; assay: X-ray crystallography; XIP (LPYFAGCL); 0.1 M MgCl2 in crystallization; EMSA: 20 mM Tris-HCl pH 8.0, 150 mM NaCl, 1 mM EDTA, 10% glycerol, 1 mg/ml BSA, 37 C 10 min, 40 ng DNA in 20 ul; crystal: 30% PEG 550 MME, 0.1 M MgCl2, 0.05 M Tris-HCl pH 8.5, 18 C; settings: protein: recombinant; tags: C-terminal StreptagII; chain copies: 2; blunt
# [5] = molecular target: ComR Y91A (ComR-StreptagII mutant) (Streptococcus thermophilus LMD-9); assay: ITC; peptide 500 μM in the syringe, ComR 50 μM in the cell; 20°C; 20 mM Tris-HCl pH 8.0, 150 mM NaCl, 1 mM EDTA; one-binding-site model; apparent KD (peptide binding and dimerization not told apart)
# [6] = molecular target: ComR K87A/K246A (ComR-StreptagII double mutant) (Streptococcus thermophilus LMD-9); assay: as above
# [7] = molecular target: ComR F171A/Y174A (ComR-StreptagII double mutant) (Streptococcus thermophilus LMD-9); assay: as above
# [8] = molecular target: ComR T90A (ComR-StreptagII mutant) (Streptococcus thermophilus LMD-9); assay: as above
# [9] = molecular target: ComR from Streptococcus thermophilus LMD-9 (ComR-StreptagII, wild type) (Streptococcus thermophilus LMD-9); assay: as above; remark: listed apart in the source
# [10] = molecular target: ComR R92A (ComR-StreptagII mutant) (Streptococcus thermophilus LMD-9); assay: as above
# [11] = molecular target: ComR K100A (ComR-StreptagII mutant) (Streptococcus thermophilus LMD-9); assay: as above
molecule,measurement,setting,value
VPFFMIYY [type I peptide VPFFMIYY from S. vestibularis],in vivo activation efficiency / activation of ComR,[1],more efficiently activated by the type II peptide MGLDWWSL from S. mutans than by the type I peptide VPFFMIYY
MGLDWWSL [type II peptide MGLDWWSL from S. mutans],in vivo activation efficiency / activation of ComR,[1],more efficiently activated by the type II peptide MGLDWWSL from S. mutans than by the type I peptide VPFFMIYY
LAYFYPEL [casein-derivative peptide LAYFYPEL],in vivo activation efficiency / activation of ComR,[1],inactive
"ComS18-24: heptapeptide ComS18-24 lacking the N-terminal Leucine, minimal active form of the signaling peptide (PYFAGCL)",activity of heptapeptide ComS18-24,[1],also fully active
same,activity of heptapeptide ComS18-24,[1]; listed as heptapeptide 18–24,minimal active form of the signaling peptide
CC(C)C[C@H](NC(=O)[C@H](CS)NC(=O)CNC(=O)[C@H](C)NC(=O)[C@H](Cc1ccccc1)NC(=O)[C@H](C)NC(=O)[C@@H]1CCCN1C(=O)[C@@H](N)CC(C)C)C(=O)O [Y19A] (H-LPAFAGCL-OH),affinity in words,ComR WT [2],only little impact on the affinity of the protein
same,Kd,ComR WT [2],52 ± 13 nM
CC(C)C[C@H](N)C(=O)N1CCC[C@H]1C(=O)N[C@@H](Cc1ccc(O)cc1)C(=O)N[C@@H](Cc1ccccc1)C(=O)N[C@@H](C)C(=O)NCC(=O)N[C@@H](CS)C(=O)N[C@@H](C)C(=O)O [L24A] (H-LPYFAGCA-OH),affinity in words,ComR WT [2],the affinity of the peptide decreases drastically
same,Kd,ComR WT [2],1550 ± 332 nM
CC(C)C[C@H](NC(=O)[C@H](CS)NC(=O)CNC(=O)[C@H](C)NC(=O)[C@H](C)NC(=O)[C@H](Cc1ccc(O)cc1)NC(=O)[C@@H]1CCCN1C(=O)[C@@H](N)CC(C)C)C(=O)O [F20A] (H-LPYAAGCL-OH),affinity in words,ComR WT [2],the affinity of the peptide decreases drastically
same,Kd,ComR WT [2],2130 ± 226 nM
GAWYYVPL [casein-derived octapeptide GAWYYVPL],in vivo activation efficiency / activation of ComR,[1],also activated
LPYFAGCA [XIP L24A variant (ComS 17-24 with L24A)],Kd,[3],1550 nM
same,stoichiometry N,[3],1.75
LPYAAGCL [XIP F20A variant (ComS 17-24 with F20A)],Kd,[3],2130 nM
same,stoichiometry N,[3],1.2
PcomX ComR-box (20 bp) (dsDNA) DNA 1: TAGTGACATATATGTCTCTA DNA 2: TAGAGACATATATGTCACTA,binding result,ComR WT [4],binds
"LPYFAGCL [XIP octapeptide (ComS 17-24, LPYFAGCL) from Streptococcus thermophilus LMD-9]",Kd,[5],141 nM
same,stoichiometry N,[5],0.9
same,Kd,[6],9 nM
same,stoichiometry N,[6],0.8
same,Kd,[7],87 nM
same,stoichiometry N,[7],1.1
same,Kd,[8],244 nM
same,stoichiometry N,[8],0.7
same,Kd,[9],10 nM
same,stoichiometry N,[9],0.8
same,Kd,[10],277 nM
same,stoichiometry N,[10],1.2
same,Kd,[11],1180 nM
same,stoichiometry N,[11],0.8
same,Kd,[3],8 nM
same,stoichiometry N,[3],1.1
LPAFAGCL [XIP Y19A variant (ComS 17-24 with Y19A)],Kd,[3],52 nM
same,stoichiometry N,[3],1.5
